We go through five molecules from article PMC9418145, “Structure of the human NK cell NKR-P1:LLT1 receptor:ligand complex reveals clustering in the immune synapse” (Nature Communications, 2022).

Data set [1] addresses soluble human NKR-P1 ectodomain (C-type lectin-like domain, Gly90-Ser225), glycosylated with uniform GlcNAc2Man5 N-glycans (human) (UniProt Q12918). Kind of data set: AUC; sedimentation velocity of equimolar mixtures of glycosylated NKR-P1 with LLT1 or LLT1^SIM at increasing concentrations, 20 °C, SEC buffer; isotherms of weight-average S fitted to A + B ⇔ AB or A + B ⇔ AB + B ⇔ BAB (A the LLT1 dimer, B the NKR-P1 monomer).

A short description of data set [2]: crystal structure comparison of homodimers. The settings on record: glycan lost; control: glycosylated NKR-P1 (GlcNAc2Man5), 5MGR.
A short description of data set [3]: CD spectroscopy. Conditions: glycan lost; control: wild-type NKR-P1 ectodomain.
The nature of data set [4]: analytical ultracentrifugation, sedimentation velocity. Conditions: glycan lost; control: wild-type NKR-P1 ectodomain.
In data set [5] the target is AICL (Homo sapiens) (UniProt Q92478). The settings on record: cited from earlier work.
Chain of AICL (Homo sapiens) (Q92478 whole entry): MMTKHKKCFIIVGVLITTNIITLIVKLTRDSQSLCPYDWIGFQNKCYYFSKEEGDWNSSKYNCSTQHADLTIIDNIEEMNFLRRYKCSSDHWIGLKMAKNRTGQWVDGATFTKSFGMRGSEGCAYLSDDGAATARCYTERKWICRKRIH
Data set [6] concerns the molecule itself. Kind of data set: AUC; sedimentation velocity of the single glycosylated proteins, 48,000 rpm, 20 °C, 10 mM HEPES pH 7.5, 150 mM NaCl, 10 mM NaN3.
Data set [7] addresses T1, soluble human NKR-P1 ectodomain (C-type lectin-like domain, Gly90-Ser225), glycosylated with uniform … (human, UniProt Q12918 90-225, Asn-GlcNAc2Man5 N-glycans; potential N-glycosylation sites Asn116, Asn157, Asn169).
T1 construct: residues at the N-terminus of the secreted protein, left from the N-terminal secretion leader of pOPINGGTneo; human NKR-P1 (CD161), extracellular CTL domain, Gly90-Ser225; For MST this protein was labelled with Atto 488 NHS-ester at pH 6.5; Monomeric in solution (AUC), a non-covalent helix α1-centered homodimer in the crystal; Ile168 stands in the structure; also called CD161; NKR-P1_glyco; …
T1 sequence: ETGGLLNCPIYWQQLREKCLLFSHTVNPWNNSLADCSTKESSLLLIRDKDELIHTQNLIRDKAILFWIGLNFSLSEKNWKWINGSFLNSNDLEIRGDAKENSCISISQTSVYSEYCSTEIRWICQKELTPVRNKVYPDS
Kind of data set: AUC; sedimentation velocity of equimolar mixtures of glycosylated NKR-P1 with LLT1 or LLT1^SIM at increasing concentrations, 20 °C, SEC buffer; isotherms of weight-average S fitted to A + B ⇔ AB or A + B ⇔ AB + B ⇔ BAB (A the LLT1 dimer, B the NKR-P1 monomer). The settings on record: both partners purified.

For data set [8], the target named is T1, soluble human NKR-P1 ectodomain (C-type …). Kind of data set: not stated; overall Kd of this study as told in the discussion; the experiment behind it (AUC or MST) is not named there. Conditions: both partners purified.

“LLT1^SIM, N120R, R153E, K169A secondary interaction mode triple mutant of the soluble LLT1 ectodomain (from UniProt Q9UHP7 72-191) (domain or fragment)”: the fold weaker overall affinity than the wild-type LLT1 in data set [1] came to 3 fold.

On to NKR-P1 (CD161): Endo F1, for which the “structure_or_conformation, other: pairwise Cα RMSD” value in data set [2] is given as “no change”.

As for NKR-P1 (CD161): S159A, the stability_or_folding entry in data set [3] was “no change”. For the same molecule, the oligomerisation entry in data set [4] is listed as “increases”.

One may read the Kd as the concentration at which binding is half-saturated. On to NKp80 (from UniProt Q9NZS2), for which the Kd in data set [5] is 2300 nM.

B1: stabilized H176C form of the soluble human LLT1 ectodomain (Gln72-Val191), glycosylated (domain or fragment, UniProt Q9UHP7 72-191, looked up)
chain: QAACPESWIGFQRKCFYFSDDTKNWTSSQRFCDSQDADLAQVESFQELNFLLRYKGPSDHWIGLSREQGQPWKWINGTEWTRQFPILGAGECAYLNDKGASSARCYTERKWICSKSDIHV
modifications: GlcNAc2Man5 glycans
notes: human LLT1, soluble ectodomain Gln72-Val191 with the stabilising mutation H176C; also called wild-type LLT1; soluble LLT1; source: HEK293S GnTI- cells, transiently transfected, secreted, purified (IMAC on Talon, SEC)
For orientation: stoichiometry N means the number of molecules, sites or subunits per partner or assembly. As to B1, in data set [6], the “stoichiometry N” value came out at 2. In data set [7], the “KD of the primary interaction mode” value stood at 50 µM. In data set [8], this molecule gave a Kd of 90 µM.
